For 1 substance, percent able to bind CIMPR results are on record in EP4793349A2.

The test deals with cation-independent mannose-6-phosphate receptor (CIMPR). Description: CIMPR affinity chromatography of spent culture medium, before AEX capture.

On to “recombinant human α-galactosidase A (rhα-Gal A) (from UniProt P06280 32-429) (enzyme)”, for which the percent able to bind CIMPR was 80%.
